Test results as given in patent US20050238685A1 (published 2005).

Assays:
bovine pancreas trypsin [1] = molecular target: T1, bovine pancreas trypsin (bovine, UniProt P00760 24-246); assay: enzyme on hydrophobin-coated sheets, washed; chromogenic assay
T1 construct: Bought enzyme; also called 25 kD trypsin (bovine pancreas)

[2] = molecular target: BSA (bovine serum albumin) (bovine, UniProt P02769 25-607); assay: protein on hydrophobin-coated TEFLON sheets, rinsed; TFA extraction and SDS-PAGE
bovine pancreas trypsin [3] = molecular target: T1, bovine pancreas trypsin; assay: enzyme on SC3-coated TEFLON, rinsed; activity by spectrophotometry, constant after removal of the surface

T1 sequence (P00760 24-246): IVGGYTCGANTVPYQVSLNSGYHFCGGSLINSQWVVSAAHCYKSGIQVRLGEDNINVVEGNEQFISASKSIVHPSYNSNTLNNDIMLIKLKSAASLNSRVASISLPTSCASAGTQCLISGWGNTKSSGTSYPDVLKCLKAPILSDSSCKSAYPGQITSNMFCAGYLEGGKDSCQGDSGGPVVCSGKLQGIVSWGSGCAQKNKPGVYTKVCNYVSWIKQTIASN
Sequence of BSA (bovine serum albumin) (P02769 25-607 limits assumed): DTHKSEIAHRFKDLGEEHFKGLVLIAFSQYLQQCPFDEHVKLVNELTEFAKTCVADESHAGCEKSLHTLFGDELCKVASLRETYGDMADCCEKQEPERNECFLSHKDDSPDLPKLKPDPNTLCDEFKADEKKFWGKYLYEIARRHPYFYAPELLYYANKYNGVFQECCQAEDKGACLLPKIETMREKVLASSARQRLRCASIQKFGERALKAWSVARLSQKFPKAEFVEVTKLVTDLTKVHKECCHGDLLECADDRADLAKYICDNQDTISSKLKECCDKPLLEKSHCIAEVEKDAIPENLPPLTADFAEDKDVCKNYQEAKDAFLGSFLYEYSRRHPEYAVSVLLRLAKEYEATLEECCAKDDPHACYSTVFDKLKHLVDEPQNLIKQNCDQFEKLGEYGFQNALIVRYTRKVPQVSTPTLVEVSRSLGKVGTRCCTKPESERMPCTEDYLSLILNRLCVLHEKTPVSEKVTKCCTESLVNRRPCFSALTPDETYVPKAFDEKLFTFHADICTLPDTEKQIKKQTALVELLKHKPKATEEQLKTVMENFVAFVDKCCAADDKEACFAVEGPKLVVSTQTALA

B1: SC4 hydrophobin of Schizophyllum commune (other)
chain: AGQACNSGPVQCCNETTTVANAQKQGLLGGLLGVVVGPITGLVGLNCSPISVVGVLTGNSCTAQTVCCDHVTQNGLVNVGCTPISL
**Q.** Does B1 bind (bovine pancreas trypsin [1])?
**A.** Result: binds

B2: SC3 hydrophobin of Schizophyllum commune (other, UniProt P16933 25-136, looked up)
chain: GGHPGTTTPPVTTTVTVTTPPSTTTIAAGGTCTTGSLSCCNQVQSASSSPVTALLGLLGIVLSDLNVLVGISCSPLTVIGVGGSGCSAQTVCCENTQFNGLINIGCTPINIL
notes: Used as a self-assembled film (alpha-helix state or beta-sheet state) coated on TEFLON, polyethylene, glass, microtiter wells or oil droplets; Natural SC3 is glycosylated (mannose) at its N-terminal side; also called hydrophobin SC3
**Q.** Does B2 bind [2]?
**A.** Result: binds

**Q.** Does B2 bind (bovine pancreas trypsin [3])?
**A.** Result: binds
